In publication PMC7215387, “Comparison of Target Recognition by TRAF1 and TRAF2” (International Journal of Molecular Sciences, 2020):

Columns and labels:
[1] = molecular target: T1, TRAF2 (Homo sapiens, UniProt Q12933); test: Complex formation assay by gel-filtration (size-exclusion) chromatography with TRAF2; format: binding; settings: Superdex 200 10/30, 20 mM Tris pH 8.0, 150 mM NaCl; 1 h at 4 °C; peak around 14 mL
T1 construct: TRAF2 TRAF domain (amino acid residues 305-501); 6xHis (C); made in house; host or cells: E. coli BL21 (DE3)
T1 sequence (Q12933 305-501): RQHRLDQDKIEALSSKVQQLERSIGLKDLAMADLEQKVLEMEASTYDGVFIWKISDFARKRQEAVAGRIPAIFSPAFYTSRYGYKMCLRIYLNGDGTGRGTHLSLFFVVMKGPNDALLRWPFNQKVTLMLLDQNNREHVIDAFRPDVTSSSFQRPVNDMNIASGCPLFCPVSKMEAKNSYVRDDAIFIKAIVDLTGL
Text: TRADD is a well-known regulator of the TRAF function. The death domain located at the C-terminus of TRADD interacts with death-domain containing receptors and adaptor proteins including TNFR, receptor interacting protein 1 (RIP1) and Fas-associated death domain protein (FADD), while the N-terminal domain of TRADD (TRADD-N) interacts with the TRAF domain of TRAF2 (Figure 2a). Although several indirect interactions between TRAF1 and TRADD have been described, a direct interaction and direct analyses between TRAF1 and TRADD have not been reported. To directly study their interactions and binding properties, which may provide important clues for understanding TRAF-mediated signaling by TRADD, TRAFs and TRADD-N were purified, and initial interaction testing was performed by Native-PAGE. […] Although TRAF1 did interact with TRADD-N, this interaction was not as tight as with TRAF2 (Figure 2b). To further confirm this association, the interaction between the TRAFs and TRADD-N was further tested by size-exclusion chromatography. […]
Purified TRAF domains and TRADD-N proteins were mixed, incubated at 4 °C for 1 h, and concentrated to 4 to 5 mg/mL using a protein concentration kit (Millipore). […] Complex assembly was evaluated based on the positions of eluted protein peaks monitored at 280 nm followed by SDS-PAGE.

[2] = molecular target: T1, TRAF2; test: Surface plasmon resonance (SPR), TRAF2; format: binding; settings: TRAF2 versus TRAF1
Method: The binding affinities between TRADD-N and TRAF1 or TRAF2 were further quantitatively analyzed using surface plasmon resonance (SPR) experiments (Figure 3a,b). For the SPR experiment, each purified 6xHis-tagged TRAF1 and TRAF2 was coupled to Ni-NTA sensor chips using a His-tag affinity system. Different concentrations of TRADD-N protein, from 0.39 to 3.125 μM, were analyzed for binding to TRAF1 or TRAF2. […] Given their interaction patterns and affinity differences in complex formation, we modeled the structure of the TRAF1:TRADD-N complex by docking TRADD-N to a previously solved TRAF1 structure based on the TRAF2:TRADD-N complex to better understand the affinity differences (Figure 3c,d). According to the previously determined structure of the TRAF2:TRADD-N complex, two distinct binding regions, Region I and II, were identified (Figure 3e). The specific residues from TRAF2 that contributed to the interaction in Region I were T401, H406, L471, and P474. The interaction-contributing residues on TRAF2 in Region II were D445, R448, P449, D450, S454 and G468. All residues in TRAF2 that participated in the interaction with TRADD-N were conserved in TRAF1, except for S454, which was replaced by alanine in TRAF1 (Figure 3f). The side chain of S454 in TRAF2 formed a stable hydrogen bond with the side chain of Q143 on TRADD-N and contributed to the stable interaction between these two proteins. […]

affinity of TRAF2 for TRADD-N relative to that of TRAF1 [2]: four times higher
B1: TRADD-N: N-terminal domain of TRADD (TRADD-N, amino acid residues 1-163) (protein)
chain: MAAGQNGHEEWVGSAYLFVESSLDKVVLSDAYAHPQQKVAVYRALQAALAESGGSPDVLQMLKIHRSDPQLIVQLRFCGRQPCGRFLRAYREGALRAALQRSLAAALAQHSVPLQLELRAGAERLDALLADEERCLSCILAQQPDRLRDEELAELEDALRNLK
modifications: left off: His6 (from the vector pET24a), C-terminal, state not stated
co-migration with TRAF2 in size-exclusion chromatography / SDS-PAGE [1]: co-migrated well with TRADD-N at similar intensities
